Laboratory results from US20040014149A1 (RIGEL PHARMACEUTICALS, published 2004).
Ends that are not written are not given here.

T1: human thioredoxin-like 32 kDa protein (hTXNL) (human, UniProt O43396 1-289, limits assumed)
T1 sequence: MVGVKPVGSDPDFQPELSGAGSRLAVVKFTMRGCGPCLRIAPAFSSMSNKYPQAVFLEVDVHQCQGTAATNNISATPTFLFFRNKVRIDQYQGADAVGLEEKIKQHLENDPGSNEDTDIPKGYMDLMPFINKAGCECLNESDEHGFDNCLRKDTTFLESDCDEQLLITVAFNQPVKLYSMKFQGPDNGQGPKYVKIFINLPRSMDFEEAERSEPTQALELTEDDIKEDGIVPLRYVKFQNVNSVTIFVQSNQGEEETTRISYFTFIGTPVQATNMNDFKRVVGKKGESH


Tests used:
[1] = molecular target: T1, human thioredoxin-like 32 kDa protein …; assay: cell-based or functional assay
[2] = molecular target: T1, human thioredoxin-like 32 kDa protein …; assay: cell-based or functional assay; remark: listed apart in the source

Reporter Ratio (A5T4 germline epsilon promoter GFP reporter line) [1] | endogenous epsilon inhibition ratio (TAQMAN quantitative PCR) [2] | reporter ratio (original library clone, +IL-4/+Dox to +IL-4/-Dox GFP) [2] | Binder
1.69 | 1.56 | 1.43 | PERCYMRMPPQSLADAQIYS (peptide, not shown: large carriers, also: expressed as BFP-linker-peptide fusion, construct not described) [peptide DR15wt]
1.35 |  |  | PERCYMRMPPQSLADAAAYS (peptide, not shown: large carriers) [peptide DR15QI]
1.22 |  |  | PERCAARMPPQSLADAQIYS (peptide, not shown: large carriers) [peptide DR15YM]
2.22 |  |  | AARCYMRMPPQSLADAQIYS (peptide, not shown: large carriers) [peptide DR15PE]
